± gives the uncertainty stated by the source.
Test: self-splicing fitness, log relative to wild type (ln ratio); higher = more splicing; Tetrahymena group I intron in knt gene, E. coli kanamycin selection, DiMSum; sequences stand for … in CUCUCU…GGAGGGAAAAGUUAUCAGGCAUGCACCUGGUAGCUAGUCUUUAAACCAAUAGAUUGCAUCGGUUUAAAAGGCAAGACCGUCAAAUUGCGGGAAAGGGGUCAACAGCCGUUCAGUACCAAGUCUCAGGGGAAACUUUGAGAUGGCCUUGCAAAGGGUAUGGUAAUAAGCUGACGGACAUGGUCCUAACCACGCAGCCAAGUCCUAAGUCAACAGAUCUUCUGUUGAUAUGGAUGCAGUUCACAGACUAAAUGUCGGUCGGGGAAGAUGUAUUCUUCUCAUAAGAUAUAGUCGGACCUCUCCUUAAUGGGAGCUAGCGGAUGAAGUGAUGCAACACUGGAGCCGCUGGGAACUAAUUUGUAUGCGAAAGUAUAUUGAUUAGUUUUGGAGUACUCGUGGUCG
Procedure, shortened: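 The eight P1ex-region nucleotides of an intron in the knt kanamycin-resistance gene on pET-22b(+) were all randomised and the library put into E. coli BL21(DE3). Six replicate transformations were grown overnight at 37°C or 30°C on LB agar with or without 25 μg/mL kanamycin, together with 100 μg/mL carbenicillin, 50 μM IPTG and 0.2% rhamnose. Colonies were pooled and amplicon-sequenced on an Illumina HiSeq 2500. Fitness from DiMSum is the error-weighted combination of wild-type-normalised replicate fold changes, kanamycin over none.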

Sequence	self-splicing fitness (ln) (30 °C)	self-splicing fitness (ln) (37 °C)
CCCAAGCAAUAUUACGUAGG	-2.17 ± 0.067	-1.56 ± 0.082
CCCAAGCAAUAUUACGUCGA	-3.92 ± 0.26	-2.81 ± 0.2
CCCAAGCAAUAUUACGUCGC	-3.94 ± 0.28	-2.38 ± 0.16
CCCAAGCAAUAUUACGUGAA	-3.33 ± 0.14	-2.13 ± 0.14
CCCAAGCAAUAUUACGUGAC	-3.91 ± 0.25	-2.03 ± 0.19
CCCAAGCAAUAUUACGUGUC	-4.25 ± 0.26	-2.72 ± 0.18
CCCAAGCAAUAUUACGUUCA	-3.21 ± 0.23	-2.39 ± 0.29
CCCAAGCAAUAUUACGUUGA	-3.74 ± 0.14	-3.04 ± 0.14
CCCAAGCAAUAUUACGUUUC	-3.63 ± 0.16	-2.76 ± 0.15
CCCCAGCAAUAUUACGAAAU	-3.82 ± 0.17	-2.25 ± 0.18
CCCCAGCAAUAUUACGAACG	-3.44 ± 0.2	-2.19 ± 0.18
CCCCAGCAAUAUUACGAUGG	-3.49 ± 0.15	-2.82 ± 0.21
CCCCAGCAAUAUUACGCACA	-3.56 ± 0.21	-3.66 ± 0.29
CCCCAGCAAUAUUACGCAUA	-2.67 ± 0.14	-2.4 ± 0.2
CCCCAGCAAUAUUACGCCAG	-3.57 ± 0.2	-2.44 ± 0.22
CCCCAGCAAUAUUACGCGGA	-3.34 ± 0.15	-2.07 ± 0.12
CCCCAGCAAUAUUACGCGUA	-3.87 ± 0.25	-2.46 ± 0.18
CCCCAGCAAUAUUACGCUCG	-3.14 ± 0.17	-2.1 ± 0.19
CCCCAGCAAUAUUACGGAAG	-2.27 ± 0.088	-1.73 ± 0.11
CCCCAGCAAUAUUACGGACA	-3.52 ± 0.14	-2.53 ± 0.14
CCCCAGCAAUAUUACGGAUC	-2.89 ± 0.12	-2.96 ± 0.21
CCCCAGCAAUAUUACGGCAG	-3.92 ± 0.16	-2.22 ± 0.15
CCCCAGCAAUAUUACGGCGA	-2.05 ± 0.14	-1.64 ± 0.14
CCCCAGCAAUAUUACGGCGG	-3.53 ± 0.17	-2.99 ± 0.24
CCCCAGCAAUAUUACGUACA	-3.37 ± 0.21	-3.5 ± 0.35

Sequence	self-splicing fitness (ln) (30 °C)	self-splicing fitness (ln) (37 °C)
CCCCAGCAAUAUUACGUCAU	-3.36 ± 0.1	-3.02 ± 0.15
CCCCAGCAAUAUUACGUCCG	–	-2.09 ± 0.28
CCCCAGCAAUAUUACGUGCC	-4.13 ± 0.27	-2.57 ± 0.24
CCCGAGCAAUAUUACGAACU	–	-1.58 ± 0.39
CCCGAGCAAUAUUACGAAGC	-3.12 ± 0.26	–
CCCGAGCAAUAUUACGAAUA	-3.44 ± 0.2	-2.89 ± 0.21
CCCGAGCAAUAUUACGACUA	-2.29 ± 0.36	–
CCCGAGCAAUAUUACGAGCC	-2.46 ± 0.2	-2.12 ± 0.28
CCCGAGCAAUAUUACGCAAC	–	-2.23 ± 0.34
CCCGAGCAAUAUUACGCAUC	-2 ± 0.15	-1.45 ± 0.2
CCCGAGCAAUAUUACGCUUA	-3.88 ± 0.3	-2.82 ± 0.33
CCCGAGCAAUAUUACGCUUC	-3.7 ± 0.47	-2.32 ± 0.29
CCCGAGCAAUAUUACGGAGG	-3.84 ± 0.21	-2.57 ± 0.19
CCCGAGCAAUAUUACGGCAC	–	-2.32 ± 0.28
CCCGAGCAAUAUUACGGUCG	-3.56 ± 0.24	-2.58 ± 0.2
CCCGAGCAAUAUUACGGUUC	-3.62 ± 0.2	-1.98 ± 0.2
CCCGAGCAAUAUUACGUAUC	-1.94 ± 0.17	-3.67 ± 0.36
CCCGAGCAAUAUUACGUCUC	–	-2.22 ± 0.29
CCCGAGCAAUAUUACGUGAG	-3.58 ± 0.19	-2.77 ± 0.24
CCCGAGCAAUAUUACGUGUC	-5.12 ± 0.38	-2.8 ± 0.19
CCCGAGCAAUAUUACGUUGG	-4.15 ± 0.18	-2.09 ± 0.14
CCCGAGCAAUAUUACGUUUA	-3.42 ± 0.17	-2.75 ± 0.16
CCCUAGCAAUAUUACGAACC	–	-2.28 ± 0.39
CCCUAGCAAUAUUACGAAUA	-1.47 ± 0.3	-1.79 ± 0.39
CCCUAGCAAUAUUACGACCU	-3.5 ± 0.21	-2.68 ± 0.26

— the supplement of paper PMC7877785
